Experimental data reported in patent publication US20070292447A1.

Target: CS40 anti-ManLAM monoclonal antibody
Assay: competitive ELISA, ManLAM-coated plate, CS40 mixed with peptide; at 50 µg/ml peptide

B1: B11 synthetic peptide (…) (peptide)
peptide: ISLTEWSMWYRH
**Q.** With B1 as the binder, how does the decrease in OD (inhibition of CS40 binding to ManLAM) read?
**A.** Its decrease in OD (inhibition of CS40 binding to ManLAM) is 100%.
